Reference: patent US20190218277A1 (Chugai, published 2019)

B1: DG_3CH912-SG182/3CL-SK1 (antibody, human IgG1, kappa, V domains shown)
VH: QVQLVQSGPDVEKPGASVKVSCKASGYTFTSNYIHWVRQAPGQGLEWMGVINPRGGSRASAQKFQGRITMTRDTSTSTVYMELSSLRSEDTAVYYCARGGRALFYDSYTTPFDGGSWWFDPWGQGSLVTVSS
VL: DIQLTQSPSSLSASVGDRVTFTCQASQDIRKYLNWYQQKPGKAPKLLIYDASNLKTGVPSRFSGSGSGTDFTFTISSLQPEDVATYYCQQFDDLPITFGQGTRLQIKR
B2: DG_3CH953-SG182/3CL563-SK1 (antibody, human IgG1, kappa, V domains shown)
VH: QVQLVQSGPDVEKPGASVKVSCKASGYTFTSNYIHWVRQAPGQGLEWMGVINPRGGSRRSAQKFQGRITMTRDTSTSTVYMELSSLRSEDTAVYYCARGGRALFYDSYTTPFDGGSWWFDPWGQGSLVTVSS
VL: DIQLTQSPSSLSASVGDRVTFTCQASQDIRQYLNWYQQKPGKAPKLLIYDASNLKFGVPSRFSGSGSGTDFTFTISSLQPEDVATYYCQQFSALPITFGQGTRLQIKR
B3: DG_3CH955-SG182/3CL499-SK1 (antibody, human IgG1, kappa, V domains shown)
VH: QVQLVQSGPDVEKPGASVKVSCKASGYTFTSNYIHWVRQAPGQGLEWMGVINPRGGSRRSAQKFQGRITMTRDTSTSTVYMELSSLRSEDTAVYYCARGGRALFYDSYTTPRDLGSWWFDPWGQGSLVTVSS
VL: DIQLTQSPSSLSASVGDRVTFTCQASQDIRKYLNWYQQKPGKAPKLLIYDASNLKFGVPSRFSGSGSGTDFTFTISSLQPEDVATYYCQQFDALPITFGQGTRLQIKR
B4: DG_3CH955-SG182/3CL563-SK1 (antibody, human IgG1, kappa, V domains shown)
VH: QVQLVQSGPDVEKPGASVKVSCKASGYTFTSNYIHWVRQAPGQGLEWMGVINPRGGSRRSAQKFQGRITMTRDTSTSTVYMELSSLRSEDTAVYYCARGGRALFYDSYTTPRDLGSWWFDPWGQGSLVTVSS
VL: DIQLTQSPSSLSASVGDRVTFTCQASQDIRQYLNWYQQKPGKAPKLLIYDASNLKFGVPSRFSGSGSGTDFTFTISSLQPEDVATYYCQQFSALPITFGQGTRLQIKR
B5: Anti-CD154 antibody (SLAPH0336a/SLAPL0336a) with Fc variant LALA+KAES (SG1095) (antibody, human IgG1, kappa, L234A L235A)
heavy: EVQLVESGGGSVKPGGSLKLSCAASGFTFSDHYMYWVRQTPEKRLEWVAIISGGGSYTSYPDSMKGRFTISRDNAKNILHLQMSSLKSEDTAMYYCTRESNGKPGFAYWGQGTLVTVSAASTKGPSVFPLAPSSKSTSGGTAALGCLVKDYFPEPVTVSWNSGALTSGVHTFPAVLQSSGLYSLSSVVTVPSSSLGTQTYICNVNHKPSNTKVDKRVEPKSCDKTHTCPPCPAPEAAGGPSVFLFPPKPKDTLMISRTPEVTCVVVDVSHEDPEVKFNWYVDGVEVHNAKTKPREEQYNSTYRVVSVLTVLHQDWLNGKEYKCKVSNAALPAPISKTISKAKGQPREPQVYTLPPSREEMTKNQVSLTCLVKGFYPSDIAVEWESNGQPENNYKTTPPVLDSDGSFFLYSKLTVDKSRWQQGNVFSCSVMHEALHNHYTQKSLSLSP
light: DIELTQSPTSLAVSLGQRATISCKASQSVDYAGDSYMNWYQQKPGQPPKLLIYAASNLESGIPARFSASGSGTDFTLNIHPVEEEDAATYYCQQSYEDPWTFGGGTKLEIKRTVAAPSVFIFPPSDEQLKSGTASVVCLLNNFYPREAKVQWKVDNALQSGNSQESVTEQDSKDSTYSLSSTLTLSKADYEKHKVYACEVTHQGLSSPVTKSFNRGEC
B6: Anti-CD154 antibody (SLAPH0336a/SLAPL0336a) with Fc variant LALA+KMES (SG1098) (antibody, human IgG1, kappa, L234A L235A)
heavy: EVQLVESGGGSVKPGGSLKLSCAASGFTFSDHYMYWVRQTPEKRLEWVAIISGGGSYTSYPDSMKGRFTISRDNAKNILHLQMSSLKSEDTAMYYCTRESNGKPGFAYWGQGTLVTVSAASTKGPSVFPLAPSSKSTSGGTAALGCLVKDYFPEPVTVSWNSGALTSGVHTFPAVLQSSGLYSLSSVVTVPSSSLGTQTYICNVNHKPSNTKVDKRVEPKSCDKTHTCPPCPAPEAAGGPSVFLFPPKPKDTLMISRTPEVTCVVVDVSHEDPEVKFNWYVDGVEVHNAKTKPREEQYNSTYRVVSVLTVLHQDWLNGKEYKCKVSNMALPAPISKTISKAKGQPREPQVYTLPPSREEMTKNQVSLTCLVKGFYPSDIAVEWESNGQPENNYKTTPPVLDSDGSFFLYSKLTVDKSRWQQGNVFSCSVMHEALHNHYTQKSLSLSP
light: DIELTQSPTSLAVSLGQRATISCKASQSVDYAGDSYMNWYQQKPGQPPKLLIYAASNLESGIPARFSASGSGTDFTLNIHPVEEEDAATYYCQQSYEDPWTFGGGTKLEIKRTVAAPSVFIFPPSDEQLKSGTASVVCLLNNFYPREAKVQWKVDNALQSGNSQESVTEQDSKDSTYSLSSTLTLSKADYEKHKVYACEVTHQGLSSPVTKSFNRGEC
B7: LALA + KDES (antibody, human IgG1, kappa, L234A L235A)
heavy chain: EVQLVESGGGSVKPGGSLKLSCAASGFTFSDHYMYWVRQTPEKRLEWVAIISGGGSYTSYPDSMKGRFTISRDNAKNILHLQMSSLKSEDTAMYYCTRESNGKPGFAYWGQGTLVTVSAASTKGPSVFPLAPSSKSTSGGTAALGCLVKDYFPEPVTVSWNSGALTSGVHTFPAVLQSSGLYSLSSVVTVPSSSLGTQTYICNVNHKPSNTKVDKRVEPKSCDKTHTCPPCPAPEAAGGPSVFLFPPKPKDTLMISRTPEVTCVVVDVSHEDPEVKFNWYVDGVEVHNAKTKPREEQYNSTYRVVSVLTVLHQDWLNGKEYKCKVSNDALPAPISKTISKAKGQPREPQVYTLPPSREEMTKNQVSLTCLVKGFYPSDIAVEWESNGQPENNYKTTPPVLDSDGSFFLYSKLTVDKSRWQQGNVFSCSVMHEALHNHYTQKSLSLSP
light chain: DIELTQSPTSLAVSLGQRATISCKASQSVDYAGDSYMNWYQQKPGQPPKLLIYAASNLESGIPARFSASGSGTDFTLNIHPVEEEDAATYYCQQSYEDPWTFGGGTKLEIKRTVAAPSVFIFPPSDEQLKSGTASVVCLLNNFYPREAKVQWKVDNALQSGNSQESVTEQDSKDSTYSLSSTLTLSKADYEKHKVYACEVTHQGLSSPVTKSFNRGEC
notes: also called Anti-CD154 antibody (SLAPH0336a/SLAPL0336a) with Fc variant LALA+KDES (SG1096); SG1096

Legend:
[1] = molecular target: T1, Recombinant soluble E protein (0.8E-His) from DENV-3 (DENV-3, UniProt P27915 281-673); test: SPR, Biacore T200
T1 construct: also called DENV-3 E protein; DV3

[2] = molecular target: T2, Recombinant soluble E protein (0.8E-His) from DENV-1 (DENV-1, UniProt P27909 281-675)
T2 construct: also called DENV-1 E protein; DV1

[3] = molecular target: T3, Recombinant soluble E protein (0.8E-His) from DENV-2 (DENV-2, UniProt P14340 281-675)
T3 construct: also called DENV-2 E protein; DV2

[4] = molecular target: T4, Recombinant soluble E protein (0.8E-His) from DENV-4 (DENV-4, UniProt P09866 280-674)
T4 construct: also called DENV-4 E protein; DV4

human C1q (Calbiochem) = human C1q (Calbiochem) (human, UniProt P02745 23-245; P02746 28-253; P02747 29-245); test: ELISA: antibody coated on the plate at the concentration shown, human C1q added, detected with HRP anti-human C1q, OD 450 nm
Sequence of human C1q (Calbiochem) (P02745 23-245 limits assumed, chain 1 of 3): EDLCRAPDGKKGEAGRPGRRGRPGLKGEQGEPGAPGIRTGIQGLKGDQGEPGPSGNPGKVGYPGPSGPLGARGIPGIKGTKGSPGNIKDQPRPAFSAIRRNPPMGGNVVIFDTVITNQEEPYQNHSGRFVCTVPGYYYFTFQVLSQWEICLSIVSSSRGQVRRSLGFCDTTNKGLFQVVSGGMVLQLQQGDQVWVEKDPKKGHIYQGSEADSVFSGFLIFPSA
Sequence of human C1q (Calbiochem) (P02746 28-253 limits assumed, chain 2 of 3): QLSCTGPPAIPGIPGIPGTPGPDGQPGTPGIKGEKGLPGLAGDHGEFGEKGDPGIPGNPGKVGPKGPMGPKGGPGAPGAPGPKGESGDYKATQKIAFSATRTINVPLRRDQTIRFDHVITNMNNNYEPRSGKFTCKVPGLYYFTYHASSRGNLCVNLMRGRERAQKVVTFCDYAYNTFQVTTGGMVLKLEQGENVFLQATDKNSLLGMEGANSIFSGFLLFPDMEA
Sequence of human C1q (Calbiochem) (P02747 29-245 limits assumed, chain 3 of 3): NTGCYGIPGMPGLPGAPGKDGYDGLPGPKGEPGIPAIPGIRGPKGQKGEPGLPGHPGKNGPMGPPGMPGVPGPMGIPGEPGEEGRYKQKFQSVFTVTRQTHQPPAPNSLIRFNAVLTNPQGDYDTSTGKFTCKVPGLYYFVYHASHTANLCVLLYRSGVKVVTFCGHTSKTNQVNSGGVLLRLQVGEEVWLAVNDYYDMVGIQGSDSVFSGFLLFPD

[5] = molecular target: mouse C1q (from 10% mouse plasma) (mouse, UniProt P98086 23-245; P14106 26-253; Q02105 30-246); test: ELISA: antibody coated on the plate at the concentration shown, 10% mouse plasma added, detected with biotinylated anti-mouse C1q and streptavidin-HRP, OD 405 nm
Sequence of mouse C1q (from 10% mouse plasma) (P98086 23-245 limits assumed, chain 1 of 3): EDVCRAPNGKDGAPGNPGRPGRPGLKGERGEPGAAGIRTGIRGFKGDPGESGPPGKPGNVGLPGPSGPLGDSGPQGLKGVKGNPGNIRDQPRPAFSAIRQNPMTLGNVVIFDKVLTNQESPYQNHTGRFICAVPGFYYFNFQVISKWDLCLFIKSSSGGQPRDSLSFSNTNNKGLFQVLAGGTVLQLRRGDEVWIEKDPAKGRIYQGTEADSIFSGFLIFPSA
Sequence of mouse C1q (from 10% mouse plasma) (P14106 26-253 limits assumed, chain 2 of 3): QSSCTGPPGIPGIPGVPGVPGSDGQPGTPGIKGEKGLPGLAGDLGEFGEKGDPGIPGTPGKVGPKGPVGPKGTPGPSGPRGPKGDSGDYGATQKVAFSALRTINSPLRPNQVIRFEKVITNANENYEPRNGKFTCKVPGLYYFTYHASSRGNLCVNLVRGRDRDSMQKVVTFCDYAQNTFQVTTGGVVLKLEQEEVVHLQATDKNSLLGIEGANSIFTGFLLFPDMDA
Sequence of mouse C1q (from 10% mouse plasma) (Q02105 30-246 limits assumed, chain 3 of 3): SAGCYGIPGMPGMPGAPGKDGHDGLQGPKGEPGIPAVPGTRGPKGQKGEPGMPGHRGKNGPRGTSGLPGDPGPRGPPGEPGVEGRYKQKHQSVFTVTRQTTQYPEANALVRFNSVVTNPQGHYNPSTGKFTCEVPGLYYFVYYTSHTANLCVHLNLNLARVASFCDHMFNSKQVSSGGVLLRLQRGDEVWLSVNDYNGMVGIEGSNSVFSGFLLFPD

human FcγRIa = molecular target: T5, human FcγRIa (human, UniProt P12314 16-292); test: SPR (Biacore T200, pH 7.4, 25 °C): His-tagged FcγR captured by anti-His antibody; antibody injected at 100 nM alone (Ab alone) or as 1:1 complex with trimeric CD154 (CD154 IC); binding level / capture level [A]
T5 construct: also called human FcγR1a
T5 sequence (P12314 16-292 limits assumed): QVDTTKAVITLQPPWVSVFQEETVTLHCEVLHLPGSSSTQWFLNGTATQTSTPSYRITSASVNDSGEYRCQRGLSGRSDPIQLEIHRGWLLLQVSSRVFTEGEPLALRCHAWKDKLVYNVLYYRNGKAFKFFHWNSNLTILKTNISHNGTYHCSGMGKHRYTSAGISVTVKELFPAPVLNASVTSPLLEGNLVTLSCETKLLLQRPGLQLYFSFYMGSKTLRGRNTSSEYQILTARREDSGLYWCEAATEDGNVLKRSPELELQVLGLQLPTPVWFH

human FcγRIIIa (158V) = molecular target: T6, human FcγRIIIa (158V) (human, UniProt P08637 17-208); test: SPR (Biacore T200, pH 7.4, 25 °C): His-tagged FcγR captured by anti-His antibody; antibody injected at 100 nM alone (Ab alone) or as 1:1 complex with trimeric CD154 (CD154 IC); binding level / capture level [F]
T6 construct: also called human FcγR3a allelic variant 158V
T6 sequence (P08637 other isoform, or with tags, fused parts or gaps limits assumed): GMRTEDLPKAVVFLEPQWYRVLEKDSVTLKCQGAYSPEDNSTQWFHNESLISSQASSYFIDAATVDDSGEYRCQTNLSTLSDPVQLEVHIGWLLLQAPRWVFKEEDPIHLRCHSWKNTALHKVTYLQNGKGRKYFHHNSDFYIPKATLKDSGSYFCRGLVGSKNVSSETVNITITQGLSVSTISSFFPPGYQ

Row | Binder | binding result [1] | Kd [2] | Kd [3] | Kd [4] | binding result (human C1q (Calbiochem)) | binding result [5] | binding result (human FcγRIa) | binding result (human FcγRIIIa (158V))
1 | B1 | binds | 1.85 nM | 0.811 nM | 8.78 nM | – | – | – | –
2 | B2 | binds | 1.88 nM | 0.922 nM | 8.21 nM | – | – | – | –
3 | B3 | binds | 1.26 nM | 1.03 nM | 8.26 nM | – | – | – | –
4 | B4 | binds | 1.91 nM | 1.04 nM | 12.2 nM | – | – | – | –
5 | B5 | – | – | – | – | binds | binds | binds | binds
6 | B6 | – | – | – | – | binds | – | – | –
7 | B7 | – | – | – | – | binds | – | – | –
